Assay results reported in the supplement of paper PMC5949888.

System: Saccharomyces cerevisiae PS128 hsf1 delta, HSF1(1-493) fusion
Assay: growth estimate (transactivation domain function in HSF1 fusion, heat-shock survival) (a.u. (slope of normalised read count over time)); higher = stronger growth at 37°C, i.e. more transactivation activity
Details: library: design library
Procedure, shortened: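 Designed transactivation-domain oligos were fused to truncated yeast HSF1 (amino acids 1–493) and expressed in an hsf1-deleted yeast strain. Cells were replica-plated onto –trp 5-FOA plates and incubated at 30°C or 37°C for 0, 2, 4, 6 and 8 days. Inserts were PCR-amplified and Illumina MiSeq-sequenced as six barcoded replicates from one experiment. Growth estimate is the slope of a robust linear fit over time of read counts normalised to sample totals and starting count.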

Sequence | growth estimate
PEFPGIALQELQELQALLQQ | -0.223
PEFPGIEAQELQELQALLQQ | -0.167
PEFPGIEGQELQELQALLQQ | < -0.25
PEFPGIEKQELQELQALLQQ | 0.269
PEFPGIELAELQELQALLQQ | -0.181
PEFPGIELKELQELQALLQQ | -0.217
PEFPGIELQALQELQALLQQ | 0.169
PEFPGIELQELAELQALLQQ | 0.131
PEFPGIELQELGELQALLQQ | -0.0807
PEFPGIELQELKELQALLQQ | < -0.25
PEFPGIELQELPELQALLQQ | -0.22
PEFPGIELQELQALQALLQQ | < -0.25
PEFPGIELQELQEKQALLQQ | < -0.25
PEFPGIELQELQELAALLQQ | 0.178
PEFPGIELQELQELGALLQQ | -0.221
PEFPGIELQELQELKALLQQ | -0.22
PEFPGIELQELQELPALLQQ | < -0.25
PEFPGIELQELQELQAALQQ | -0.23
PEFPGIELQELQELQALKQQ | -0.232
PEFPGIELQELQELQALLAQ | < -0.25
PEFPGIELQELQELQALLGQ | -0.226
PEFPGIELQELQELQALLKQ | 0.0452
PEFPGIELQELQELQALLQA | -0.246
PEFPGIELQELQELQALLQG | -0.0522
PEFPGIELQELQELQALLQK | -0.125
PEFPGIELQELQELQALLQP | -0.215

Sequence | growth estimate
PEFPGIELQELQELQALLQQ | -0.0979
PEFPGIELQELQELQALLRQ | -0.245
PEFPGIELQELQELQALPQQ | < -0.25
PEFPGIELQELQELQALRQQ | -0.168
PEFPGIELQELQELQAPLQQ | < -0.25
PEFPGIELQELQELQGLLQQ | < -0.25
PEFPGIELQELQELQKLLQQ | < -0.25
PEFPGIELQELQELQRLLQQ | -0.177
PEFPGIELQELQELRALLQQ | < -0.25
PEFPGIELQELQERQALLQQ | < -0.25
PEFPGIELQELQGLQALLQQ | < -0.25
PEFPGIELQELQRLQALLQQ | < -0.25
PEFPGIELQERQELQALLQQ | -0.248
PEFPGIELQPLQELQALLQQ | -0.243
PEFPGIELQRLQELQALLQQ | -0.107
PEFPGIELRELQELQALLQQ | 0.0112
PEFPGIEPQELQELQALLQQ | 0.114
PEFPGIKLQELQELQALLQQ | -0.02
PEFPGIPLQELQELQALLQQ | -0.204
PEFPGIRLQELQELQALLQQ | -0.249
PEFPGKELQELQELQALLQQ | < -0.25
PEFPGRELQELQELQALLQQ | < -0.25
PEFPKIELQELQELQALLQQ | < -0.25
PEFPPIELQELQELQALLQQ | -0.0915
PEFRGIELQELQELQALLQQ | -0.124
PEGPGIELQELQELQALLQQ | < -0.25

Sequence | growth estimate
PEKPGIELQELQELQALLQQ | -0.204
PELSWIIELLEKDG | -0.201
PEPPGIELQELQELQALLQQ | < -0.25
PFADTQDDFLKWWRSEEAQ | 0.444
PFDLDMLGDFDLDMLG | 4.25
PFDYDFLFGNDFA | 2.14
PFGDTQDDFLKWWRSEEAQ | 0.304
PFNDLLDLDFILSN | 0.542
PFPATQDDFLKWWRSEEAQ | < -0.25
PFPDAQDDFLKWWRSEEAQ | -0.158
PFPDPQDDFLKWWRSEEAQ | -0.0255
PFPDRQDDFLKWWRSEEAQ | -0.241
PFPDTADDFLKWWRSEEAQ | 0.6
PFPDTGDDFLKWWRSEEAQ | -0.0916
PFPDTKDDFLKWWRSEEAQ | < -0.25
PFPDTPDDFLKWWRSEEAQ | 0.819
PFPDTQADFLKWWRSEEAQ | < -0.25
PFPDTQDAFLKWWRSEEAQ | 0.5
PFPDTQDDFGKWWRSEEAQ | < -0.25
PFPDTQDDFLAWWRSEEAQ | 2.37
PFPDTQDDFLKAWRSEEAQ | < -0.25
PFPDTQDDFLKGWRSEEAQ | -0.242
PFPDTQDDFLKKWRSEEAQ | -0.167
PFPDTQDDFLKPWRSEEAQ | < -0.25
PFPDTQDDFLKWARSEEAQ | 0.0578
PFPDTQDDFLKWPRSEEAQ | < -0.25

Sequence | growth estimate
PFPDTQDDFLKWRRSEEAQ | -0.221
PFPDTQDDFLKWWASEEAQ | 4.59
PFPDTQDDFLKWWGSEEAQ | 1.82
PFPDTQDDFLKWWKSEEAQ | -0.186
PFPDTQDDFLKWWPSEEAQ | 3.12
PFPDTQDDFLKWWRGEEAQ | 0.0794
PFPDTQDDFLKWWRKEEAQ | -0.247
PFPDTQDDFLKWWRSEAAQ | -0.154
PFPDTQDDFLKWWRSEEAA | -0.236
PFPDTQDDFLKWWRSEEAG | 0.0636
PFPDTQDDFLKWWRSEEAK | -0.25
PFPDTQDDFLKWWRSEEAP | 0.0281
PFPDTQDDFLKWWRSEEAQ | -0.149
PFPDTQDDFLKWWRSEEAR | -0.248
PFPDTQDDFLKWWRSEEGQ | 0.109
PFPDTQDDFLKWWRSEEKQ | < -0.25
PFPDTQDDFLKWWRSEGAQ | -0.0427
PFPDTQDDFLKWWRSEPAQ | -0.225
PFPDTQDDFLKWWRSERAQ | < -0.25
PFPDTQDDFLKWWRSKEAQ | -0.183
PFPDTQDDFLKWWRSPEAQ | -0.176
PFPDTQDDFLKWWRSREAQ | < -0.25
PFPDTQDDFLPWWRSEEAQ | -0.145
PFPDTQDDFLRWWRSEEAQ | -0.0276
PFPDTQDDFRKWWRSEEAQ | -0.247
PFPDTQDDKLKWWRSEEAQ | -0.245

Sequence | growth estimate
PFPDTQDDPLKWWRSEEAQ | < -0.25
PFPDTQDDRLKWWRSEEAQ | -0.109
PFPDTQDGFLKWWRSEEAQ | < -0.25
PFPDTQDPFLKWWRSEEAQ | < -0.25
PFPDTQDRFLKWWRSEEAQ | < -0.25
PFPDTQGDFLKWWRSEEAQ | -0.248
PFPDTQKDFLKWWRSEEAQ | < -0.25
PFPDTQPDFLKWWRSEEAQ | -0.22
PFPDTQRDFLKWWRSEEAQ | -0.245
PFPGTQDDFLKWWRSEEAQ | < -0.25
PFPPTQDDFLKWWRSEEAQ | -0.215
PFPRTQDDFLKWWRSEEAQ | -0.248
PFRDTQDDFLKWWRSEEAQ | -0.0923
PGFPGIELQELQELQALLQQ | -0.0439
PKPDTQDDFLKWWRSEEAQ | -0.158
PLSSHGFSVDTSALLDLFSP | 0.0027
PMDDVYNYLFDD | 1.41
PPFPGIELQELQELQALLQQ | -0.187
PQNGEIAQLWDFN | -0.229
PRFPGIELQELQELQALLQQ | < -0.25
QGNGEIAQLWDFN | < -0.25
QKNGEIAQLWDFN | < -0.25
QQAGEIAQLWDFN | < -0.25
QQGGEIAQLWDFN | 0.0021
QQKGEIAQLWDFN | < -0.25
QQNAEIAQLWDFN | < -0.25

Sequence | growth estimate
QQNGAIAQLWDFN | -0.114
QQNGEGAQLWDFN | < -0.25
QQNGEIAALWDFN | -0.237
QQNGEIAGLWDFN | -0.148
QQNGEIAPLWDFN | < -0.25
QQNGEIAQAWDFN | < -0.25
QQNGEIAQGWDFN | -0.247
QQNGEIAQKWDFN | 0.0645
QQNGEIAQLADFN | -0.24
QQNGEIAQLGDFN | -0.218
QQNGEIAQLKDFN | -0.215
QQNGEIAQLRDFN | < -0.25
QQNGEIAQLWDAN | -0.23
QQNGEIAQLWDFA | < -0.25
QQNGEIAQLWDFK | < -0.25
QQNGEIAQLWDFN | -0.146
QQNGEIAQLWDFP | -0.243
QQNGEIAQLWDFR | -0.245
QQNGEIAQLWDGN | -0.163
QQNGEIAQLWDPN | -0.246
QQNGEIAQLWDRN | -0.121
QQNGEIAQLWGFN | < -0.261
QQNGEIAQLWKFN | < -0.25
QQNGEIAQLWRFN | -0.166
QQNGEIAQRWDFN | < -0.25
QQNGEIARLWDFN | -0.234

Sequence | growth estimate
QQNGEIKQLWDFN | < -0.25
QQNGEIRQLWDFN | -0.0449
QQNGEKAQLWDFN | -0.22
QQNGEPAQLWDFN | -0.235
QQNGERAQLWDFN | -0.0438
QQNGGIAQLWDFN | -0.189
QQNGKIAQLWDFN | -0.237
QQNGRIAQLWDFN | -0.248
QQNKEIAQLWDFN | -0.241
QQNPEIAQLWDFN | -0.234
QQNREIAQLWDFN | < -0.25
QQPGEIAQLWDFN | -0.242
QQRGEIAQLWDFN | < -0.25
RADDIWEELLSEDL | 0.445
RDDDEFSLWDSML | 0.648
RDLYSILWSDVY | -0.248
RFDLDMLGDFDLDMLG | 0.634
RFDYDFLFGNDFA | 2.62
RFNDLLDLDFILSN | -0.133
RFPDTQDDFLKWWRSEEAQ | -0.221
RLDESWDYIFETTE | -0.191
RMDDVYNYLFDD | -0.0132
RQNGEIAQLWDFN | < -0.25
